In test [1] the target is T1, MSR1-mediated Dil-AcLDL uptake in HEK293.Myc.hMSR1 cells (Homo sapiens, UniProt P21757).
T1 construct: expressed in transfected cells; host or cells: HEK293 (lentiviral transduction, hygromycin selection)
T1 sequence (P21757 1-451): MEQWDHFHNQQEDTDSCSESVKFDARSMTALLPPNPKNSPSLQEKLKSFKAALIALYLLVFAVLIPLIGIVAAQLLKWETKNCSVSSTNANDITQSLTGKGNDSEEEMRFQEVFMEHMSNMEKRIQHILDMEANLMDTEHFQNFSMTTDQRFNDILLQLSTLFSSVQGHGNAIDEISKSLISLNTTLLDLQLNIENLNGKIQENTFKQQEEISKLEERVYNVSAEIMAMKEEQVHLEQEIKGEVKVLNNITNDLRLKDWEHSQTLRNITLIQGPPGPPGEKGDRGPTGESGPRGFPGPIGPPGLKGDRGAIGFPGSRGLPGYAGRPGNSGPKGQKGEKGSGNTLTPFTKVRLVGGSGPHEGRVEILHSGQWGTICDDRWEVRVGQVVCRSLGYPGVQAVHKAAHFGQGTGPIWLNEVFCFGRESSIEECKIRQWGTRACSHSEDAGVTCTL
The test can be described thus: Ligand uptake assay, Dil-AcLDL. Format: cell-based. The settings on record: 10 μg/mL Dil-AcLDL. How it is done:
A bioassay was generated to assess the ability of the exemplary anti-MSR1 antibodies to regulate the uptake of certain MSR1 ligands.
Generation of MSR1-expressing cell lines for assay. […] The resulting cell line, referred to here as “HEK293.Myc.hMSR1”, was selected and maintained in DMEM containing 10% FIBS, NEAA, penicillin/streptomycin, L-glutamine, and 100 μg/mL hygromycin.
Ligand uptake assay. […] After 30 minutes, either oxidized or acetylated low-density lipoprotein (LDL) labeled with 1,1′dioctadecyl-3,3,3′,3′-tetramethylindocarbocyanine perchlorate (referred to as “Dil-OxLDL” or “Dil-AcLDL,” respectively) was added to the cells at a constant concentration of 10 μg/mL. […] Results were analyzed using nonlinear regression (4-parameter logistics) with the Prism 7 program to obtain EC50 and IC50 values. The percentage of inhibition was calculated with the Relative Fluorescent Unit (RFU) values by using the following equation: […]
In the equation, “RFUBaseline” is the fluorescence value from the cells treated with 10 μg/mL ligand without antibodies, “RFUInhibition” is the minimum fluorescence value with for a particular antibody with 10 μg/mL ligand, and “RFUBackground” is the fluorescence value from cells without any ligand or antibodies.

Test [2] concerns HMM-mfMSR1 (monkey MSR1 extracellular domain). The test can be described thus: OCTET bio-layer interferometry binding kinetics of anti-MSR1 mAbs. Conditions: 25° C., analyte HMM-mfMSR1, NB = no binding observed. How it is done:
(§1) Binding affinities and kinetic constants of human anti-MSR1 antibodies for different MSR1 reagents were determined using a real time, label-free bio-layer interferometry assay on an OCTET® HTX biosensor platform (Pall FortéBio Corp., Menlo Park, CA). The experiment was performed at 25° C. in 10 mM HEPES, 150 mM NaCl, 3 mM EDTA, 0.05% v/v Surfactant Tween-20, and 1 mg/mL BSA, pH7.4 (HBS-EBT) buffer with the plate shaking at the speed of 1000 rpm. Binding studies were performed on human MSR1 extracellular domain expressed with a N-terminal nonahistidine tag (His9-hMSR1; R&D Systems, Cat #2708-MS), monkey MSR1 extracellular domain expressed with a N-terminal myc-myc-hexahistidine tag (HMM-mfMSR1; SEQ ID NO: 418), and mouse MSR1 extracellular domain expressed with a N-terminal nonahistidine tag (His9-mMSR1; R&D Systems, Cat #1797-MS). The anti-MSR1 monoclonal antibodies were captured by dipping either anti-human Fc (AHC) or anti-mouse Fc (AMC) Octet biosensors in wells containing 5 μg/mL or 10 μg/mL of anti-MSR1 monoclonal antibody for 45-90 seconds. The AHC captured anti-MSR1 monoclonal antibodies were then dipped in wells containing 50 nM of His9-mMSR1, while the AMC captured anti-MSR1 monoclonal antibodies were dipped in wells containing different concentrations of His9-hMSR1 or HMM-mfMSR1 (100 nM, 25 nM) or 100 nM His9-mMSR1. The binding of different MSR1 reagents to the captured anti-MSR1 monoclonal antibody was measured for 4 minutes and the dissociation of monoclonal antibody bound MSR1 reagent was monitored for 8-10 minutes in HBS-EBT buffer.
(§2) The association rate (ka) and dissociation rate (kd) were determined by fitting the real-time binding sensorgrams to a 1:1 binding model with mass transport limitation using Scrubber 2.0c curve-fitting software. Binding dissociation equilibrium constant (KD) and dissociative half-life (t½) were calculated from the kinetic rates as: […]
(§3) Binding kinetics parameters for His9-hMSR1, HMM-mfMSR1 or His9-mMSR1 binding to different anti-MSR1 monoclonal antibodies of the invention at 25° C. are shown in Tables 8 and 9.
For orientation: BLI is a label-free optical method that tracks binding on a fibre tip over time.

Test [3] has as its target T2, His9-hMSR1 (human MSR1 extracellular domain) (Homo sapiens, UniProt P21757).
T2 construct: human MSR1 extracellular domain expressed with a N-terminal nonahistidine tag; His9 (nonahistidine) (N); purchased R&D Systems 2708-MS
T2 sequence (P21757 77-451 limits assumed): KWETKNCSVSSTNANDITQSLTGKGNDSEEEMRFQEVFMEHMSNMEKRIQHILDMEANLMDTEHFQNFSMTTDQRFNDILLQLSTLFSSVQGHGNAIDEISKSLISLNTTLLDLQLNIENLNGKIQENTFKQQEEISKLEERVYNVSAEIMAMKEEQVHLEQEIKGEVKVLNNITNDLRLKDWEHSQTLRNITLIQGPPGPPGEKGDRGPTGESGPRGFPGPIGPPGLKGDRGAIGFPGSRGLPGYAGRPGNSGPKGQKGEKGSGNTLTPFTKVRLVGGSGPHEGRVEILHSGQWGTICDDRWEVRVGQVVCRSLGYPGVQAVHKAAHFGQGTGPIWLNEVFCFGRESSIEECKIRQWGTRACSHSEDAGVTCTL
The description is as above. Conditions: 25° C., analyte His9-hMSR1, NB = no binding observed. As to the method:
as §1, §2, §3

In test [4] the test system is parental HEK293 cells. Nature of the test: Electrochemiluminescence antibody binding assay, non-specific binding control cells. It is filed as cell-based, human.
The target of test [5] is T3, PMA-treated THP-1 cells (endogenously expressed human MSR1) (Homo sapiens, UniProt P21757).
T3 construct: endogenous in cells; host or cells: THP-1 cells differentiated with PMA
T3 sequence (P21757 1-451): T1 sequence (P21757 1-451)
Nature of the test: Electrochemiluminescence antibody binding assay on MSR1-expressing cells. It is filed as cell-based.

Sequence of HMM-mfMSR1 (monkey MSR1 extracellular domain) (as listed by the source): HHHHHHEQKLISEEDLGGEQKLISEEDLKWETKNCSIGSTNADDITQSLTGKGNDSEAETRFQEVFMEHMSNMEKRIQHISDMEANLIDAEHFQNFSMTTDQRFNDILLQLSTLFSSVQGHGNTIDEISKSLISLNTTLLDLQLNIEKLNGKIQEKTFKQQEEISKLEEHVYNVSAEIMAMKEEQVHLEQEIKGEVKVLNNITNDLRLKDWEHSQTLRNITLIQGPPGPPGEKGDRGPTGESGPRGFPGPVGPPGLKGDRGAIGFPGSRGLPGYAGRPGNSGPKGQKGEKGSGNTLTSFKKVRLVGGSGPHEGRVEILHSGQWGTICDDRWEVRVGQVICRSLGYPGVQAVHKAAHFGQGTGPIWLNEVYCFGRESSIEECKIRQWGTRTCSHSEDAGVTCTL

B1: H2aM21229N: one of "Twelve anti-MSR1 antibodies"; "an “H2aM” antibody has a mouse IgG2a Fc" (antibody, V domains shown)
VH: EVQLVESGGGLVKPGGSLRLSCAASGFTFSRYSMNWVRQAPGKGLEWVSSISSSSSYIYYGDTVKGRFTISRDNAKKSLYLQMNSLRAEDTAVYYCVRDRGQLVLYFDYWGQGTLVTVSS
VL: DIQMTQSPASLSTSIRDRVTITCRASLSISSFLNWFQQRPGKAPKLLIYVASNLQSGVPSRFSDSGSGTDFTLTISSLQPEDFATYYCQQNYSTPPITFGQGTRLEIK
For B1, in test [1], the “Dil-Acetylated LDL IC50” value is given as “no inhibition” and the “maximum inhibition of Dil-AcLDL uptake” value is given as “no inhibition”. The “Dil-Acetylated LDL % Inhibition” value in test [1] (maximum inhibition) is listed as “no inhibition”. Moreover, in test [2], the ka amounted to 135000 M⁻¹ s⁻¹ and the kd turned out to be 0.00222 s⁻¹. Further, in test [3], the ka worked out at 300000 M⁻¹ s⁻¹ and the kd worked out at 0.00021 s⁻¹. Besides, in test [4], the “Ratio of 11 nM Antibody Binding Signal (RLU) to isotype control, HEK293” value is listed as 36. Further, the “Ratio of 11 nM Antibody Binding Signal (RLU) to isotype control, PMA-treated THP-1” value in test [5] is listed as 56.

B2: H2aM25695N: one of "Twelve anti-MSR1 antibodies"; "an “H2aM” antibody has a mouse IgG2a Fc" (antibody, V domains shown)
VH: QVQLQESGPGLVKPSETLSLTCTVTGGSISRNYWSWIRQPPGKGLEWIGYIYYSGSINYNPSLKSRVTISVDMSKNQFSLKLNSVTAADTAVYYCARDRWNWKYGMDVWGQGTTVIVSS
VL: EIVLTQSPGTLSLSPGERATLSCRASQTVRNSYLAWYHQKPGQAPRLLIYGASSRATGIPDRFSGSGSGTDFTLTISRLEPEDFAVYYCQQYGSSYWTFGQGTKMEIKR
B2: in test [2], the ka was 312000 M⁻¹ s⁻¹ and the kd stood at 0.000571 s⁻¹. Moreover, in test [3], the ka was determined as 360000 M⁻¹ s⁻¹ and the kd worked out at 0.000527 s⁻¹. Besides, the “Ratio of 11 nM Antibody Binding Signal (RLU) to isotype control, HEK293” value in test [4] is listed as 5. In addition, the “Ratio of 11 nM Antibody Binding Signal (RLU) to isotype control, PMA-treated THP-1” value in test [5] turned out to be 8.

Source of the values: US12497460B2, “Anti-MSR1 antibodies and methods of use thereof” (REGENERON PHARMACEUTICALS, INC., priority 2018, dated 2025).
